Laboratory results from the supplement of paper PMC10567573.

B1: SPSB4 (parent)
chain: LDMDEGTLSFIVDGQYLGVAFRGL
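Note: lentivirally expressed fusions sorted by FACS into six bins by GFP to DsRed ratio, PSI derived from sequencing read proportions per bin multiplied by bin number.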

Variants of: B1
Experiment: protein stability index of a GFP-peptide fusion (GPS, HEK-293T) (PSI 1-6); higher = more stable
Conditions: c terminus: a fixed tail appended
Variant LYMDEGTLSFIVDGQYLGVAFRGL [D2Y] has a protein stability index of 2.74.
Variant LDADEGTLSFIVDGQYLGVAFRGL [M3A] has a protein stability index of 2.05.
With LDCDEGTLSFIVDGQYLGVAFRGL [M3C] the protein stability index was 2.17.
Work on LDDDEGTLSFIVDGQYLGVAFRGL [M3D] yielded a protein stability index of 1.59.
LDEDEGTLSFIVDGQYLGVAFRGL [M3E] gave a protein stability index of 1.42.
For LDFDEGTLSFIVDGQYLGVAFRGL [M3F], the protein stability index was 2.33.
LDGDEGTLSFIVDGQYLGVAFRGL [M3G] showed a protein stability index of 2.09.
With LDHDEGTLSFIVDGQYLGVAFRGL [M3H] the protein stability index was 2.39.
With LDIDEGTLSFIVDGQYLGVAFRGL [M3I] the protein stability index was 1.33.
Work on LDKDEGTLSFIVDGQYLGVAFRGL [M3K] yielded a protein stability index of 2.9.
LDLDEGTLSFIVDGQYLGVAFRGL [M3L] showed a protein stability index of 3.27.
Work on LDNDEGTLSFIVDGQYLGVAFRGL [M3N] yielded a protein stability index of 1.52.
Variant LDPDEGTLSFIVDGQYLGVAFRGL [M3P] has a protein stability index of 1.74.
For LDQDEGTLSFIVDGQYLGVAFRGL [M3Q], the protein stability index was 2.68.
LDRDEGTLSFIVDGQYLGVAFRGL [M3R] showed a protein stability index of 2.68.
Work on LDSDEGTLSFIVDGQYLGVAFRGL [M3S] yielded a protein stability index of 1.77.
LDVDEGTLSFIVDGQYLGVAFRGL [M3V] showed a protein stability index of 2.67.
LDMAEGTLSFIVDGQYLGVAFRGL [D4A] showed a protein stability index of 1.71.
With LDMCEGTLSFIVDGQYLGVAFRGL [D4C] the protein stability index was 1.66.
With LDMGEGTLSFIVDGQYLGVAFRGL [D4G] the protein stability index was 2.73.
LDMHEGTLSFIVDGQYLGVAFRGL [D4H] gave a protein stability index of 3.59.
For LDMIEGTLSFIVDGQYLGVAFRGL [D4I], the protein stability index was 3.21.
For LDMKEGTLSFIVDGQYLGVAFRGL [D4K], the protein stability index was 2.15.
Work on LDMLEGTLSFIVDGQYLGVAFRGL [D4L] yielded a protein stability index of 4.51.
For LDMMEGTLSFIVDGQYLGVAFRGL [D4M], the protein stability index was 3.51.
Work on LDMNEGTLSFIVDGQYLGVAFRGL [D4N] yielded a protein stability index of 1.93.
LDMPEGTLSFIVDGQYLGVAFRGL [D4P] showed a protein stability index of 1.66.
In the case of LDMQEGTLSFIVDGQYLGVAFRGL [D4Q], the protein stability index is reported as 2.4.
For LDMREGTLSFIVDGQYLGVAFRGL [D4R], the protein stability index was 2.39.
LDMSEGTLSFIVDGQYLGVAFRGL [D4S] showed a protein stability index of 2.52.
With LDMTEGTLSFIVDGQYLGVAFRGL [D4T] the protein stability index was 2.45.
In the case of LDMVEGTLSFIVDGQYLGVAFRGL [D4V], the protein stability index is reported as 2.95.
Work on LDMDCGTLSFIVDGQYLGVAFRGL [E5C] yielded a protein stability index of 3.63.
LDMDDGTLSFIVDGQYLGVAFRGL [E5D] showed a protein stability index of 2.77.
LDMDFGTLSFIVDGQYLGVAFRGL [E5F] gave a protein stability index of 2.59.
Variant LDMDGGTLSFIVDGQYLGVAFRGL [E5G] has a protein stability index of 1.85.
Variant LDMDHGTLSFIVDGQYLGVAFRGL [E5H] has a protein stability index of 3.53.
Work on LDMDIGTLSFIVDGQYLGVAFRGL [E5I] yielded a protein stability index of 3.72.
With LDMDLGTLSFIVDGQYLGVAFRGL [E5L] the protein stability index was 2.51.
With LDMDMGTLSFIVDGQYLGVAFRGL [E5M] the protein stability index was 2.56.
For LDMDNGTLSFIVDGQYLGVAFRGL [E5N], the protein stability index was 3.71.
With LDMDPGTLSFIVDGQYLGVAFRGL [E5P] the protein stability index was 1.42.
LDMDQGTLSFIVDGQYLGVAFRGL [E5Q] gave a protein stability index of 2.7.
LDMDRGTLSFIVDGQYLGVAFRGL [E5R] showed a protein stability index of 1.9.
LDMDSGTLSFIVDGQYLGVAFRGL [E5S] gave a protein stability index of 2.79.
For LDMDVGTLSFIVDGQYLGVAFRGL [E5V], the protein stability index was 3.95.
In the case of LDMDWGTLSFIVDGQYLGVAFRGL [E5W], the protein stability index is reported as 3.01.
LDMDYGTLSFIVDGQYLGVAFRGL [E5Y] gave a protein stability index of 2.27.
In the case of LDMDEATLSFIVDGQYLGVAFRGL [G6A], the protein stability index is reported as 3.24.
With LDMDECTLSFIVDGQYLGVAFRGL [G6C] the protein stability index was 3.03.
In the case of LDMDEDTLSFIVDGQYLGVAFRGL [G6D], the protein stability index is reported as 1.87.
LDMDEETLSFIVDGQYLGVAFRGL [G6E] showed a protein stability index of 1.98.
Work on LDMDEFTLSFIVDGQYLGVAFRGL [G6F] yielded a protein stability index of 2.25.
For LDMDEHTLSFIVDGQYLGVAFRGL [G6H], the protein stability index was 2.65.
LDMDEITLSFIVDGQYLGVAFRGL [G6I] showed a protein stability index of 2.38.
Variant LDMDEKTLSFIVDGQYLGVAFRGL [G6K] has a protein stability index of 2.78.
For LDMDEMTLSFIVDGQYLGVAFRGL [G6M], the protein stability index was 2.66.
Work on LDMDENTLSFIVDGQYLGVAFRGL [G6N] yielded a protein stability index of 3.5.
In the case of LDMDEPTLSFIVDGQYLGVAFRGL [G6P], the protein stability index is reported as 1.72.
LDMDEQTLSFIVDGQYLGVAFRGL [G6Q] gave a protein stability index of 3.01.
In the case of LDMDERTLSFIVDGQYLGVAFRGL [G6R], the protein stability index is reported as 2.28.
LDMDESTLSFIVDGQYLGVAFRGL [G6S] showed a protein stability index of 4.16.
LDMDETTLSFIVDGQYLGVAFRGL [G6T] gave a protein stability index of 2.32.
Variant LDMDEWTLSFIVDGQYLGVAFRGL [G6W] has a protein stability index of 2.88.
With LDMDEYTLSFIVDGQYLGVAFRGL [G6Y] the protein stability index was 3.87.
Variant LDMDEGALSFIVDGQYLGVAFRGL [T7A] has a protein stability index of 2.34.
LDMDEGDLSFIVDGQYLGVAFRGL [T7D] showed a protein stability index of 2.11.
LDMDEGELSFIVDGQYLGVAFRGL [T7E] gave a protein stability index of 1.31.
Variant LDMDEGFLSFIVDGQYLGVAFRGL [T7F] has a protein stability index of 1.81.
Variant LDMDEGGLSFIVDGQYLGVAFRGL [T7G] has a protein stability index of 2.27.
Work on LDMDEGHLSFIVDGQYLGVAFRGL [T7H] yielded a protein stability index of 1.94.
Variant LDMDEGILSFIVDGQYLGVAFRGL [T7I] has a protein stability index of 2.18.
For LDMDEGKLSFIVDGQYLGVAFRGL [T7K], the protein stability index was 2.03.
Variant LDMDEGLLSFIVDGQYLGVAFRGL [T7L] has a protein stability index of 1.99.
For LDMDEGMLSFIVDGQYLGVAFRGL [T7M], the protein stability index was 2.53.
LDMDEGNLSFIVDGQYLGVAFRGL [T7N] gave a protein stability index of 1.23.
Work on LDMDEGPLSFIVDGQYLGVAFRGL [T7P] yielded a protein stability index of 1.64.
Work on LDMDEGQLSFIVDGQYLGVAFRGL [T7Q] yielded a protein stability index of 3.36.
Variant LDMDEGRLSFIVDGQYLGVAFRGL [T7R] has a protein stability index of 1.75.
In the case of LDMDEGSLSFIVDGQYLGVAFRGL [T7S], the protein stability index is reported as 3.54.
In the case of LDMDEGVLSFIVDGQYLGVAFRGL [T7V], the protein stability index is reported as 1.86.
LDMDEGWLSFIVDGQYLGVAFRGL [T7W] gave a protein stability index of 3.12.
With LDMDEGYLSFIVDGQYLGVAFRGL [T7Y] the protein stability index was 2.04.
In the case of LDMDEGTASFIVDGQYLGVAFRGL [L8A], the protein stability index is reported as 1.27.
With LDMDEGTCSFIVDGQYLGVAFRGL [L8C] the protein stability index was 3.35.
In the case of LDMDEGTDSFIVDGQYLGVAFRGL [L8D], the protein stability index is reported as 2.21.
Variant LDMDEGTESFIVDGQYLGVAFRGL [L8E] has a protein stability index of 1.94.
For LDMDEGTFSFIVDGQYLGVAFRGL [L8F], the protein stability index was 2.3.
In the case of LDMDEGTGSFIVDGQYLGVAFRGL [L8G], the protein stability index is reported as 1.76.
With LDMDEGTHSFIVDGQYLGVAFRGL [L8H] the protein stability index was 1.55.
For LDMDEGTISFIVDGQYLGVAFRGL [L8I], the protein stability index was 2.43.
With LDMDEGTKSFIVDGQYLGVAFRGL [L8K] the protein stability index was 1.47.
Work on LDMDEGTMSFIVDGQYLGVAFRGL [L8M] yielded a protein stability index of 2.72.
LDMDEGTNSFIVDGQYLGVAFRGL [L8N] gave a protein stability index of 1.86.
